Test results published in paper PMC12596195, “Mei5–Sae3 stabilizes both active and inactive forms of Dmc1 filaments independently of its impact on ATP hydrolysis” (Nucleic Acids Research, 2025).

Tests used:
[1] = biological target: T1, ScDmc1 (Saccharomyces cerevisiae Dmc1, wild type) (Saccharomyces cerevisiae) (UniProt P25453)
T1 sequence: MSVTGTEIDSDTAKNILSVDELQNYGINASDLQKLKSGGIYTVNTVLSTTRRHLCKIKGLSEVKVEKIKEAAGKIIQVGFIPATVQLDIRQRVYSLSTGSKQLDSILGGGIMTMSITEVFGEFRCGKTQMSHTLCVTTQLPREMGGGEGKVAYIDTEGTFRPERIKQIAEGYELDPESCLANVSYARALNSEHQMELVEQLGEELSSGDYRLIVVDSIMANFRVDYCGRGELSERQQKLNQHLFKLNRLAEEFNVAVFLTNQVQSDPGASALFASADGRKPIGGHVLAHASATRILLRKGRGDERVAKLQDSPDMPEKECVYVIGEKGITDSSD

[2] = biological target: T1, ScDmc1 (Saccharomyces cerevisiae Dmc1, wild type) (Saccharomyces cerevisiae); remark: listed apart in the source
[3] = biological target: T1, ScDmc1 (Saccharomyces cerevisiae Dmc1, wild type) (Saccharomyces cerevisiae); remark: listed apart in the source
[4] = biological target: T1, ScDmc1 (Saccharomyces cerevisiae Dmc1, wild type) (Saccharomyces cerevisiae); remark: listed apart in the source
[5] = biological target: T1, ScDmc1 (Saccharomyces cerevisiae Dmc1, wild type) (Saccharomyces cerevisiae); remark: listed apart in the source
[6] = biological target: T1, ScDmc1 (Saccharomyces cerevisiae Dmc1, wild type) (Saccharomyces cerevisiae); remark: listed apart in the source

- D-loop yield with versus without 0.5 µM Mei5–Sae3 (3 µM Dmc1, 0.2 µM RPA, 70 µM Ca2+, 5 mM Mg2+, ATP) [1]: 2.5 fold
- negative-stain EM: average Dmc1 filament length with versus without Mei5–Sae3, ADP as cofactor (compressed filaments) [2]: 2.3 fold
- negative-stain EM: average Dmc1 filament length with versus without Mei5–Sae3, AMP–PNP as cofactor [2]: 1.5 fold
- 3H-ADP retained on Dmc1 filaments (nitrocellulose filter) after adding 0.5, 1 or 2 µM Mei5–Sae3; value at 2 µM [3]: 65%
- ssDNA-dependent ATP hydrolysis by Dmc1 (TLC), with versus without Mei5–Sae3, 70 µM Ca2+ [4]: 2 fold
- apparent KD of Dmc1 for ssDNA by fluorescence polarisation, fold reduction by 400 nM Mei5–Sae3 (ADP in place of ATP) [5]: 1.5 fold
- apparent KD of Dmc1 for ssDNA by fluorescence polarisation, fold reduction by 400 nM Mei5–Sae3 (AMP–PNP in place of ATP) [5]: 1.5 fold
- apparent KD of Dmc1 for ssDNA by fluorescence polarisation, fold reduction by 400 nM Mei5–Sae3 (ATP, 70 µM Ca2+, 100 mM NaCl) [5]: 2 fold
- negative-stain EM: average Dmc1 filament length with 2 µM Mei5–Sae3 against the control without it (ATP, 70 µM Ca2+, RPA) [6]: 1.5 fold
- negative-stain EM: share of Dmc1 filaments in the extended (active) form with 2 µM Mei5–Sae3 (ATP, 70 µM Ca2+, RPA; 17% without Mei5–Sae3) [6]: 76%
B1: ScMei5–Sae3 heterodimer (complex)
chain 1: MHNQEEWLDKDKTLVNEEENTCINHSYTKKDTNNYRVGKSGIKDLKKPTNQKEIAIKNRELTKQLTLLRQENNHLQQACKILSENKIIENRKSIEKWRTICEMELSFILNSTLIKINRMGGYKDFLEKEMEAKKRRLEYQIDNGMEDQICEIKESDDFRQLSEVEKQEWESQMNEQLKELEKKKIAELEKLNKVLHDSEGKDFGMAELCTRLKLDYSLIFPQ
chain 2: MNYLETQLNKKQKQIQEYESMNGNLIKMFEQLSKEKKNDETPKKISSTYIKELKEYNELRDAGLRLAQIIADEKQCKIKDVFEEIGYSMKD
